The RNAGym collection of RNA variant scans (doi:10.7554/elife.80360)

B1: Hairpin Ribozyme (parent)
chain: GUCCUCUUUCACGUGCGCGUGAAAGAGAGAAGUGAACCAGAGAAACACACGUUGUGGUAUAUUACCUGGUA

Variants of: B1
Assay: self-cleavage, relative activity (ratio to wild type); higher = more cleavage; co-transcriptional

Variant | self-cleavage
GUCCUCUUUCACGUGCGCGUGAAAGAGAGAAGUGAACCAGAGAAACACACGUUAUGGUAUAUUCCCUGGUA | 0.152
GUCCUCUUUCACGUGCGCGUGAAAGAGAGAAGUGAACCAGAGAAACACACGUUAUGGUAUAUUGCCUGGUA | 0.403
GUCCUCUUUCACGUGCGCGUGAAAGAGAGAAGUGAACCAGAGAAACACACGUUGAGGUAUAUUACCUGCUA | 0.217
GUCCUCUUUCACGUGCGCGUGAAAGAGAGAAGUGAACCAGAGAAACACACGUGAUGGUAUAUUACCUGGUA | 0.569
GUCCUCUUUCACGUGCGCGUGAAAGAGAGAAGUGAACCAGAGAAACACACGUUCGGGUAUAUUACCUGGUA | 0.25
GUCCUCUUUCACGUGCGCGUGAAAGAGAGAAGUGAACCAGAGAAACACACGUUGAGGUAAAUUACCUGGUA | 0.245
GUCCUCUUUCACGUGCGCGUGAAAGAGAGAAGUGAACCAGAGAAACACACGUUGAGGUAGAUUACCUGGUA | 0.33
GUCCUCUUUCACGUGCGCGUGAAAGAGAGAAGUGAACCAGAGAAACACACGUGGUGGUAUAUUACUUGGUA | 0.552
GUCCUCUUUCACGUGCGCGUGAAAGAGAGAAGUGAACCAGAGAAACACACGUGGUGGUAUAUUACGUGGUA | 0.152
GUCCUCUUUCACGUGCGCGUGAAAGAGAGAAGUGAACCAGAGAAACACACGUUCUCGUAUAUUACCUGGUA | 0.286
GUCCUCUUUCACGUGCGCGUGAAAGAGAGAAGUGAACCAGAGAAACACACGUUCUGGUACAUUACCUGGUA | 0.47
GUCCUCUUUCACGUGCGCGUGAAAGAGAGAAGUGAACCAGAGAAACACACGUUCUGGUAAAUUACCUGGUA | 0.272
GUCCUCUUUCACGUGCGCGUGAAAGAGAGAAGUGAACCAGAGAAACACACGUUUUGGUAUAUUAUCUGGUA | 0.171
GUCCUCUUUCACGUGCGCGUGAAAGAGAGAAGUGAACCAGAGAAACACACGUGGUGGUAUAUUACCUGCUA | 0.316
GUCCUCUUUCACGUGCGCGUGAAAGAGAGAAGUGAACCAGAGAAACACACGUGGUGCUAUAUUACCUGGUA | 0.202
GUCCUCUUUCACGUGCGCGUGAAAGAGAGAAGUGAACCAGAGAAACACACGUUAUGGUCUAUUACCUGGUA | 0.307
GUCCUCUUUCACGUGCGCGUGAAAGAGAGAAGUGAACCAGAGAAACACACGUUACGGUAUAUUACCUGGUA | 0.502
GUCCUCUUUCACGUGCGCGUGAAAGAGAGAAGUGAACCAGAGAAACACACGUUCUGGUUUAUUACCUGGUA | 0.18
GUCCUCUUUCACGUGCGCGUGAAAGAGAGAAGUGAACCAGAGAAACACACGUUCUGGUGUAUUACCUGGUA | 0.0783

Variant | self-cleavage
GUCCUCUUUCACGUGCGCGUGAAAGAGAGAAGUGAACCAGAGAAACACACGUUAUGGUAUAUUAUCUGGUA | 0.102
GUCCUCUUUCACGUGCGCGUGAAAGAGAGAAGUGAACCAGAGAAACACACGUUCUGGUAUAUUGCCUGGUA | 0.18
GUCCUCUUUCACGUGCGCGUGAAAGAGAGAAGUGAACCAGAGAAACACACGUUUUGGUUUAUUACCUGGUA | 0.178
GUCCUCUUUCACGUGCGCGUGAAAGAGAGAAGUGAACCAGAGAAACACACGUUGAGGUAUAUGACCUGGUA | 0.142
GUCCUCUUUCACGUGCGCGUGAAAGAGAGAAGUGAACCAGAGAAACACACGUUUUGGUAUAUUACCCGGUA | 0.106
GUCCUCUUUCACGUGCGCGUGAAAGAGAGAAGUGAACCAGAGAAACACACGUUAUGGUAUAUUACCUGAUA | 0.137
GUCCUCUUUCACGUGCGCGUGAAAGAGAGAAGUGAACCAGAGAAACACACGUUGAGGUAUACUACCUGGUA | 0.229
GUCCUCUUUCACGUGCGCGUGAAAGAGAGAAGUGAACCAGAGAAACACACGUUGAGGUAUAAUACCUGGUA | 0.104
GUCCUCUUUCACGUGCGCGUGAAAGAGAGAAGUGAACCAGAGAAACACACGUUAUGGGAUAUUACCUGGUA | 0.178
GUCCUCUUUCACGUGCGCGUGAAAGAGAGAAGUGAACCAGAGAAACACACGUUAUGGCAUAUUACCUGGUA | 0.635
GUCCUCUUUCACGUGCGCGUGAAAGAGAGAAGUGAACCAGAGAAACACACGUUAUUGUAUAUUACCUGGUA | 0.104
GUCCUCUUUCACGUGCGCGUGAAAGAGAGAAGUGAACCAGAGAAACACACGUUAUAGUAUAUUACCUGGUA | 0.0848
GUCCUCUUUCACGUGCGCGUGAAAGAGAGAAGUGAACCAGAGAAACACACGUGGUGGUAUAUUAACUGGUA | 0.641
GUCCUCUUUCACGUGCGCGUGAAAGAGAGAAGUGAACCAGAGAAACACACGUUGAGGUAUAUUACCUGGAA | 0.181
GUCCUCUUUCACGUGCGCGUGAAAGAGAGAAGUGAACCAGAGAAACACACGUGGUGGUAUAUUACCUGGGA | 0.848
GUCCUCUUUCACGUGCGCGUGAAAGAGAGAAGUGAACCAGAGAAACACACGUUAUGGUAUAUUACCUGGUC | 0.977
GUCCUCUUUCACGUGCGCGUGAAAGAGAGAAGUGAACCAGAGAAACACACGUUGCGGUCUAUUACCUGGUA | 0.0877
GUCCUCUUUCACGUGCGCGUGAAAGAGAGAAGUGAACCAGAGAAACACACGUUCUGGUAUAUUACCUGGCA | 0.146
GUCCUCUUUCACGUGCGCGUGAAAGAGAGAAGUGAACCAGAGAAACACACGUUGAGUUAUAUUACCUGGUA | 0.146
